According to patent US20220332811A1 (NOVAROCK BIOTHERAPEUTICS, published 2022):

T1: recombinant human IL-23 (p19/p40 heterodimer) (human, UniProt Q9NPF7 20-189; P29460 23-328)
T1 sequence (looked up) 1: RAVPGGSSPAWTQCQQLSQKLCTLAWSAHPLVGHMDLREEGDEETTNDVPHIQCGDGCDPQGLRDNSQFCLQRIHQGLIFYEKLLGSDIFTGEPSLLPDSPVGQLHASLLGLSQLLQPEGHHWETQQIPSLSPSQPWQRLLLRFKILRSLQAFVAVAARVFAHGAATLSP
T1 sequence (looked up) 2: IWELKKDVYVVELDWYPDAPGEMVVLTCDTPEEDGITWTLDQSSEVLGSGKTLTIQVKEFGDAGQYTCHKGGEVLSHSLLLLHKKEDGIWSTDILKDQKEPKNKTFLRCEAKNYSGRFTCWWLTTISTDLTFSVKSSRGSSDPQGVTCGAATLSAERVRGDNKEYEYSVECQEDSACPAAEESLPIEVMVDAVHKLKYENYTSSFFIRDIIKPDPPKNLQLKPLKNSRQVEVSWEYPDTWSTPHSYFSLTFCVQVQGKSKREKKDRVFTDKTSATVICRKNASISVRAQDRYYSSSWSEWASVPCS

T2: human p40 subunit protein (human, UniProt P29460 23-328)
T2 construct: p40 subunit alone; also called hp40
T2 sequence (looked up): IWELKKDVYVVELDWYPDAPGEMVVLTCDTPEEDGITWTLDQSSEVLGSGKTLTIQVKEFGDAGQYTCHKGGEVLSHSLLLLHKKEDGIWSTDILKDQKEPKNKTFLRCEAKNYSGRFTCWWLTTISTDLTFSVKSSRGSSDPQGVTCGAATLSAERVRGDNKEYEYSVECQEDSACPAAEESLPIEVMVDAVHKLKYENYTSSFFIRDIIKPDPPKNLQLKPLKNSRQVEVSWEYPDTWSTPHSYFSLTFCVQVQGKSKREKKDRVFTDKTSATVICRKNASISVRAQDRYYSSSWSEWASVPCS

T3: human IL-12 protein (human, UniProt P29459 23-219; P29460 23-328)
T3 construct: Recombinant protein; also called hIL12; hIL-12
T3 sequence (looked up) 1: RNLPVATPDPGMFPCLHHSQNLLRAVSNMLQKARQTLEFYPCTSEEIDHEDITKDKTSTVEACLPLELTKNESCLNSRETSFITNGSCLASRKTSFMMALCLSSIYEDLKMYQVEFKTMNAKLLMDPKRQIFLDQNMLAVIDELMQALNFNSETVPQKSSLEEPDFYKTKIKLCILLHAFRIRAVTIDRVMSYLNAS
T3 sequence (looked up) 2: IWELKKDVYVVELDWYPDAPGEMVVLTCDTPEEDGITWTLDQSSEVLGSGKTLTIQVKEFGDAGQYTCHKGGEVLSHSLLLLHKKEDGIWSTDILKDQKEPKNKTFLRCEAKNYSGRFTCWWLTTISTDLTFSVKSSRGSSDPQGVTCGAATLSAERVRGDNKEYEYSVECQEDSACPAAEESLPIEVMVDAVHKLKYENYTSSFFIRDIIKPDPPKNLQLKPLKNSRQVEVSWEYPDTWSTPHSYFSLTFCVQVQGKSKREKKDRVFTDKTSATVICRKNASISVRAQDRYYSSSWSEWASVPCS


Experiments:
[1] = target: T1, recombinant human IL-23 (p19/p40 …); test: cell-based or functional assay
[2] = target: T2, human p40 subunit protein; test: SPR (BIAcore); antibody captured on anti-Fc chip, antigen injected
Experimental: (§1) Binding of anti-IL-23p19-specific antibodies to IL-23 proteins was analyzed by Surface plasmon resonance (SPR) determined by BIAcore. Briefly, serial dilutions of the anti-IL-23p19 antibodies or the control antibodies were captured on an anti-mouse or human Fc chip (s) that were immobilized on the CM5 chip using amine coupling kit (GE Healthcare, Catalog NO: BR-1000-50, LOT NO: 2087295).
(§2) Next, serial dilutions of IL-23 recombinant protein, human p19/mouse p40 heterodimer protein, human IL-12 protein and human p40 subunit protein in the running buffer containing 10 mM HEPES, 150 mM NaCl, 3 mM EDTA, 0.005% Tween 20, pH 7.4, were injected at 50 μl/minute over immobilized antibody for 1 minute followed by 2 minutes dissociation. Each injection was followed by a regeneration step with a 60-second pulse of 10 mM Glycine-HCl, pH 1.7 buffer. Fitting of experimental data was done with BIAevaluation software (GE Healthcare), fit with a Langmuir 1:1 model to determine apparent binding.

human IL-12 protein [3] = target: T3, human IL-12 protein; test: as above
Experimental: as §1, §2

[4] = target: T1, recombinant human IL-23 (p19/p40 …); test: SPR (BIAcore 3000); antibody captured on anti-mouse IgG CM5 chip, hIL-23 0.156-40 nM, 1:1 global fit
Experimental: To ensure accurate measurements of the KD and IC50 endpoints in binding and functional assays, the antibodies were purified from the hybridoma culture supernatants prior to testing. The binding kinetics of the disclosed anti-IL-23p19-specific antibodies to recombinant human IL-23 was determined by Surface plasmon resonance (SPR) using BIAcore 3000 system docked with a CM5 chip previously immobilized via amine coupling chemistry with anti-mouse IgG antibody (GE Cat No. BR-1008-38). Flow cell 1 remained unmodified to serve as a reference cell for subtraction of systematic instrument noise and drift. Fc2-1 detection was run with double blanking (Fc1 and blank analyte buffer). Antibody samples were diluted to 50 μg/mL in HBS-EP (GE, catalog no: BR1001-88) and injected at a flow rate of 10 uL/minute for 1 minute. Next, hIL-23 (R&D systems, catalog no: 1290-IL/CF) diluted to 0.156-40 nM was injected at 50 μL/minute for 2 minutes, followed by 10 minutes dissociation. Data were analyzed in BIAEvalution software (GE Healthcare) by 1:1 binding model with global fit to determine apparent binding kinetics.

[5] = target: T2, human p40 subunit protein; test: ELISA; antigen coated directly on plate
Experimental: (§3) The binding specificity of the disclosed anti-IL-23p19 antibodies were also assessed by ELISA. Briefly, biotinylated IL-23 were captured via streptavidin coated ELISA plates. Human p19/mouse p40, human IL-12 and human p40 subunit were directly coated to ELISA plates. Purified antibodies were then added to the plates followed by detection by goat-anti-mouse IgG-HRP (Jackson ImmunoResearch, catalog no: 115-036-071, LOT NO: 147271). After addition of ABTS substrate (Moss Inc., catalog no: ABTS-1000, LOT NO: 03086202), ELISA plates were read using an ELISA plate reader (Biotek). The controls depicted in FIG. 3: PC1 refers to a reference antibody (known to be a p19 specific antibody, Biointron, LOT NO:20180926A04); PC2 refers to a reference antibody (known to be a p40 specific antibody, Biointron, LOT NO: 20180925A07); PC3 refers to a reference antibody (MT155, known as a p19 specific antibody from Mabtech, catalog no: 3457-6-100, code: 3457-6-1000), the negative controls are human IgG4 (Dendritics, catalog no: DDXCHO4P-100, LOT NO: DDXCH04-028) and the mouse IgG2a (generated by Novarock Biotherapeutics).

human IL-12 protein [6] = target: T3, human IL-12 protein; test: ELISA; antigen coated directly on plate
Experimental: as §3

[7] = target: T1, recombinant human IL-23 (p19/p40 …); test: SPR (BIAcore 3000); captured antibody, hIL-23 0.156-40 nM, 1:1 global fit

Binder | IC50 pM, STAT3 activation in DB reporter cells [1] | Top % of inhibition, STAT3 activation in DB reporter cells [1] | binding result [2] | binding result (human IL-12 protein [3]) | Kd [4] | koff [4] | kon [4] | binding result [5] | binding result (human IL-12 protein [6]) | Kd [7] | koff [7] | kon [7]
Hu-2 18006B (antibody, V domains shown, Purified from hybridoma (Trianni mice); also called H-2 1800B (mIgG1)) VH: QVQLVQSGAEVKKPGASVKVSCKASGYTFTTYGISWVRQAPGQGLEWMGWISAYNGNTKYAQKLQGRVTMTTDTSTSTAYMELRSLRSDDTAVYYCAREWRAFYYYGLDVWGQGTTVTVSS VL: DIVMTQTPLSSPVTLGQPASISCRSSQSLEHSDGNTYLSWLQQRPNQPPRLLIYKVSNRFSGVPDRFSGSGAGTDFTLKISRVEAEDVGVYYCTQATQFPLTFGGGTKVEIK | 158 pM | 97% | no binding | no binding | 0.0416 nM | 6.54e-05 s⁻¹ | 1.57e+06 M⁻¹ s⁻¹ | – | – | – | – | –
Hu-6 18006B (purified from hybridoma) (antibody, V domains shown) VH: QVQLVQSGAEVKKPGASVKVSCKTSGYTFTYYGISWVRQAPGQGLEWMGLISAYNGNTNYGQKVQGRVTMTTDTSTSTAYMELRSLRSDDTAVYYCVTENINWRDAFDIWGQGTMVTVSS VL: EIVLTQSPDFQSVTPKEKVTITCRASQTIGSSLHWYQQKPDQSPKLLIKYASQSISGVPSRFSGSGSGTDFTLTINSLEAEDAAAYYCHQSSSLPYTFGQGTKLEIK | 60.5 pM | 99% | – | – | – | – | – | – | – | – | – | –
Hu-4 18006B* (recombinant, mIgG2a) (antibody, V domains shown) VH: QVHLVQSGAEVKKPGASVKVSCKASGYTFSSYGINWVRQAPGQGLEWMGWISAYSGNTDYSQHLQGRVTMTTDTSTNTAYMELRSLRSDDTAVYYCARASANWYDYFDPWGQGTLVTVSS VL: EIVLTQSPDFQSVTPKEKVTITCRASQTIGGSLHWYQQKPDQSPKLLITYASQSFSGVPSRFSGSGSGTDFTLTIHSLEAEDAATYYCHQSSILPYTFGQGTKLEIK | 265 pM | 100% | no binding | no binding | – | – | – | – | – | – | – | –
Hu-4 18006B (purified from hybridoma) (antibody, IgG2c, V domains shown) VH: QVHLVQSGAEVKKPGASVKVSCKASGYTFSSYGINWVRQAPGQGLEWMGWISAYSGNTDYSQHLQGRVTMTTDTSTNTAYMELRSLRSDDTAVYYCARASANWYDYFDPWGQGTLVTVSS VL: EIVLTQSPDFQSVTPKEKVTITCRASQTIGGSLHWYQQKPDQSPKLLITYASQSFSGVPSRFSGSGSGTDFTLTIHSLEAEDAATYYCHQSSILPYTFGQGTKLEIK | 168 pM | 99% | – | – | – | – | – | no binding | no binding | – | – | –

The next lines start with the values.

IC50 pM, STAT3 activation in DB reporter cells [1] | Top % of inhibition, STAT3 activation in DB reporter cells [1] | binding result [2] | binding result (human IL-12 protein [3]) | Kd [4] | koff [4] | kon [4] | binding result [5] | binding result (human IL-12 protein [6]) | Kd [7] | koff [7] | kon [7] | Binder
226 pM | 99% | no binding | no binding | 0.0662 nM | 9.89e-05 s⁻¹ | 1.49e+06 M⁻¹ s⁻¹ | – | – | – | – | – | Hu-5 18006B (antibody, IgG2b, V domains shown, Purified from hybridoma) VH: QLQLQESGPGLVKPSETLSLTCTVSGGSISSSSFYWGWIRQPPGKGLEWIGSIYYSGSTYYNPSLKSRVTISVDTSKNQFSLKLSSVTAADTAVYFCARHGVRGVIPHFDYWGQGTLVTVSS VL: QTVLTQEPSFSVSPGGTVTLTCGLNSGSVSTIYYPSWYQQTPGQAPRALIYSTNTRSSGVPDRFSGSILGNKAALTITGAQADDESDYYCVLFLGSGLVFGGGTKLTVL
35.2 pM | 99% | no binding | no binding | 0.0384 nM | 0.000171 s⁻¹ | 4.44e+06 M⁻¹ s⁻¹ | – | – | – | – | – | Hu-6 18006B* (recombinant mIgG2a) (antibody, V domains shown) VH: QVQLVQSGAEVKKPGASVKVSCKTSGYTFTYYGISWVRQAPGQGLEWMGLISAYNGNTNYGQKVQGRVTMTTDTSTSTAYMELRSLRSDDTAVYYCVTENINWRDAFDIWGQGTMVTVSS VL: EIVLTQSPDFQSVTPKEKVTITCRASQTIGSSLHWYQQKPDQSPKLLIKYASQSISGVPSRFSGSGSGTDFTLTINSLEAEDAAAYYCHQSSSLPYTFGQGTKLEIK
157 pM | 100% | no binding | no binding | – | – | – | – | – | 0.0572 nM | 0.000143 s⁻¹ | 2.5e+06 M⁻¹ s⁻¹ | Hu-4 18006B** (recombinant, hIgG4) (antibody, V domains shown) VH: QVHLVQSGAEVKKPGASVKVSCKASGYTFSSYGINWVRQAPGQGLEWMGWISAYSGNTDYSQHLQGRVTMTTDTSTNTAYMELRSLRSDDTAVYYCARASANWYDYFDPWGQGTLVTVSS VL: EIVLTQSPDFQSVTPKEKVTITCRASQTIGGSLHWYQQKPDQSPKLLITYASQSFSGVPSRFSGSGSGTDFTLTIHSLEAEDAATYYCHQSSILPYTFGQGTKLEIK
